Measurements from PMC9482650, “Quantitative fragmentomics allow affinity mapping of interactomes” (Nature Communications, 2022).

T1: RAPGEF6, Q8TEU7
T1 sequence (Q8TEU7 525-625, limits assumed, looked up): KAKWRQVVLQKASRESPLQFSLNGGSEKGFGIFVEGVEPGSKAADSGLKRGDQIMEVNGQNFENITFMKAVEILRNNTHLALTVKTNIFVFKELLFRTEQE

T2: PDZD2_2, O15018
T2 sequence (O15018 329-429, limits assumed, looked up): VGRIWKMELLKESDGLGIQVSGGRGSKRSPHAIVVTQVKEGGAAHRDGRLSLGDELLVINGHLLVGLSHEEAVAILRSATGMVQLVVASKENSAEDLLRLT

T3: MPDZ_12, O75970
T3 sequence (O75970 1857-1958, limits assumed, looked up): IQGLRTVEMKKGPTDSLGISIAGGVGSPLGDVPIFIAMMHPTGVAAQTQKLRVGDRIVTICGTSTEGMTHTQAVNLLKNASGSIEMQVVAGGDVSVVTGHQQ

T4: MPDZ_5, O75970
T4 sequence (O75970 695-796, limits assumed, looked up): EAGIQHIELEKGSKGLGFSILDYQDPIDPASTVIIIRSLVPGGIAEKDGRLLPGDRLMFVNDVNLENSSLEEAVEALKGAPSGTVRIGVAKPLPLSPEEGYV

T5: TIAM2, Q8IVF5
T5 sequence (Q8IVF5 885-986, limits assumed, looked up): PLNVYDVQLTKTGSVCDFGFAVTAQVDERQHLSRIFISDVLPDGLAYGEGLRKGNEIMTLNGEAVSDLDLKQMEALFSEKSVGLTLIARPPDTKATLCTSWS

T6: APBA1_1, Q02410
T6 sequence (Q02410 651-752, limits assumed, looked up): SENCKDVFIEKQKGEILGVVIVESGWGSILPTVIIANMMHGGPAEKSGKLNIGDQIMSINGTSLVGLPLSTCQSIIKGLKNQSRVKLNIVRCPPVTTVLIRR

T7: RHPN1, Q8TCX5
T7 sequence (Q8TCX5 508-602, limits assumed, looked up): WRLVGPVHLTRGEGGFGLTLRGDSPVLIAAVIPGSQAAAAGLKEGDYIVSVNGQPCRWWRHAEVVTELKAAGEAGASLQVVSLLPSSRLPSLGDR

T8: GRIP1_2, Q9Y3R0
T8 sequence (Q9Y3R0 145-248, limits assumed, looked up): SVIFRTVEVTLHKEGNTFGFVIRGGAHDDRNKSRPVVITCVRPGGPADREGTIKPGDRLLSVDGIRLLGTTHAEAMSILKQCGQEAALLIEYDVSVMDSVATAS

T9: PTPN13_1, Q12923
T9 sequence (Q12923 1088-1188, limits assumed, looked up): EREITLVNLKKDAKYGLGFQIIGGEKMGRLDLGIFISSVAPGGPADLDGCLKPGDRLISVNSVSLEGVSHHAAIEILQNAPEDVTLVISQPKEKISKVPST

T10: LNX2_3, Q8N448
T10 sequence (Q8N448 463-564, limits assumed, looked up): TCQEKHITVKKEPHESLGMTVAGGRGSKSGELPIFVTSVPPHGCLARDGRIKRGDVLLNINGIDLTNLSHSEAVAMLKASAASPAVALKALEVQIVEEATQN


Target: DLG2_3, Q15700
Assay: holdup assay
Design: key: below the threshold = too weak to quantify, mostly under pKd 3.1 to 4
Details: plain residues with an end cap or a label only (N-terminal biotin on a linker: ado-ado)

pKd | Binder
below the threshold | SQPLLVHDDV [KIT, P10721]

Target: MAGI2_2, Q86UL8
Sequence (Q86UL8 410-522): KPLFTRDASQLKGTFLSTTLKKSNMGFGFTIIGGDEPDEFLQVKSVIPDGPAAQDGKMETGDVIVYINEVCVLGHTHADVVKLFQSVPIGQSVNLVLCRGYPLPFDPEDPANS
Assay: holdup assay
Design: key: below the threshold = too weak to quantify, mostly under pKd 3.1 to 4
Details: plain residues with an end cap or a label only (N-terminal biotin on a linker: ado-ado)

pKd | Binder
below the threshold | SQPLLVHDDV [KIT, P10721]

Target: T1, RAPGEF6, Q8TEU7
Assay: holdup assay
Design: key: below the threshold = too weak to quantify, mostly under pKd 3.1 to 4
Details: plain residues with an end cap or a label only (N-terminal biotin on a linker: ado-ado)

pKd | Binder
below the threshold | SQPLLVHDDV [KIT, P10721]

Target: T2, PDZD2_2, O15018
Assay: holdup assay
Design: key: below the threshold = too weak to quantify, mostly under pKd 3.1 to 4
Details: plain residues with an end cap or a label only (N-terminal biotin on a linker: ado-ado)

pKd | Binder
3.99 | SQPLLVHDDV [KIT, P10721]

Target: DLG4_1, P78352
Sequence (P78352 62-152): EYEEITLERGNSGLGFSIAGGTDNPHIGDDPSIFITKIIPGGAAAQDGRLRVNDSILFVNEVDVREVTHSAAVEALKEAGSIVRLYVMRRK
Assay: holdup assay
Design: key: below the threshold = too weak to quantify, mostly under pKd 3.1 to 4
Details: plain residues with an end cap or a label only (N-terminal biotin on a linker: ado-ado)

pKd | Binder
below the threshold | SQPLLVHDDV [KIT, P10721]

Target: T3, MPDZ_12, O75970
Assay: holdup assay
Design: key: below the threshold = too weak to quantify, mostly under pKd 3.1 to 4
Details: plain residues with an end cap or a label only (N-terminal biotin on a linker: ado-ado)

pKd | Binder
below the threshold | SQPLLVHDDV [KIT, P10721]

Target: HTRA2, O43464
Sequence (O43464 355-458): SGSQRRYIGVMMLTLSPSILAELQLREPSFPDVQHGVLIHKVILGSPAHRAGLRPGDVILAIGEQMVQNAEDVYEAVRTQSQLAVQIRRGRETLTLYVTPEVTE
Assay: holdup assay
Design: key: below the threshold = too weak to quantify, mostly under pKd 3.1 to 4
Details: plain residues with an end cap or a label only (N-terminal biotin on a linker: ado-ado)

pKd | Binder
below the threshold | SQPLLVHDDV [KIT, P10721]

Target: SNX27, Q96L92
Assay: holdup assay
Design: key: below the threshold = too weak to quantify, mostly under pKd 3.1 to 4
Details: plain residues with an end cap or a label only (N-terminal biotin on a linker: ado-ado)

pKd | Binder
below the threshold | SQPLLVHDDV [KIT, P10721]

Target: MAST2, Q6P0Q8
Sequence (Q6P0Q8 1099-1202): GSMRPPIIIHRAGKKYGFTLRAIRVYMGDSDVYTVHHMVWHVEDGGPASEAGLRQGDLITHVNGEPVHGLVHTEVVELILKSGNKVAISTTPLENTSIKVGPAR
Assay: holdup assay
Design: key: below the threshold = too weak to quantify, mostly under pKd 3.1 to 4
Details: plain residues with an end cap or a label only (N-terminal biotin on a linker: ado-ado)

pKd | Binder
below the threshold | SQPLLVHDDV [KIT, P10721]

Target: T4, MPDZ_5, O75970
Assay: holdup assay
Design: key: below the threshold = too weak to quantify, mostly under pKd 3.1 to 4
Details: plain residues with an end cap or a label only (N-terminal biotin on a linker: ado-ado)

pKd | Binder
below the threshold | SQPLLVHDDV [KIT, P10721]

Target: LAP2, Q96RT1
Sequence (Q96RT1 other isoform, or with tags, fused parts or gaps): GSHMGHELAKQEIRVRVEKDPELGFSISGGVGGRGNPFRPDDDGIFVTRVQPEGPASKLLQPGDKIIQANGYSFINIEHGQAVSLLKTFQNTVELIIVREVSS
Assay: holdup assay
Design: key: below the threshold = too weak to quantify, mostly under pKd 3.1 to 4
Details: plain residues with an end cap or a label only (N-terminal biotin on a linker: ado-ado)

pKd | Binder
3.56 | SQPLLVHDDV [KIT, P10721]

Target: PARD3_3, Q8TEW0
Sequence (Q8TEW0 582-685): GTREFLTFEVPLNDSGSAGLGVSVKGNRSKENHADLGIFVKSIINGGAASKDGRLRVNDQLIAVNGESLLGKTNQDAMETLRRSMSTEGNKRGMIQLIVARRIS
Assay: holdup assay
Design: key: below the threshold = too weak to quantify, mostly under pKd 3.1 to 4
Details: plain residues with an end cap or a label only (N-terminal biotin on a linker: ado-ado)

pKd | Binder
below the threshold | SQPLLVHDDV [KIT, P10721]

Target: FRMPD3, Q5JV73
Sequence (Q5JV73 12-100): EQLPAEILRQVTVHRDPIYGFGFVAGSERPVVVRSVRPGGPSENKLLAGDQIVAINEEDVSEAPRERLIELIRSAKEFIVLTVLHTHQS
Assay: holdup assay
Design: key: below the threshold = too weak to quantify, mostly under pKd 3.1 to 4
Details: plain residues with an end cap or a label only (N-terminal biotin on a linker: ado-ado)

pKd | Binder
below the threshold | SQPLLVHDDV [KIT, P10721]

Target: Inadl_1, Q8NI35
Sequence (Q8NI35 113-229): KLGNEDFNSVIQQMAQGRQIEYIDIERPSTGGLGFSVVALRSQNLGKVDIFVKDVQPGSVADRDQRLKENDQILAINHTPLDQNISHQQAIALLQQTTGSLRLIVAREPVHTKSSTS
Assay: holdup assay
Design: key: below the threshold = too weak to quantify, mostly under pKd 3.1 to 4
Details: plain residues with an end cap or a label only (N-terminal biotin on a linker: ado-ado)

pKd | Binder
below the threshold | SQPLLVHDDV [KIT, P10721]

Target: NOS1, P29475
Sequence (P29475 9-101): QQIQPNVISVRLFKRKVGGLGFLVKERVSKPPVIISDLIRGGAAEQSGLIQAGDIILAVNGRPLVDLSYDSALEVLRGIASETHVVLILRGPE
Assay: holdup assay
Design: key: below the threshold = too weak to quantify, mostly under pKd 3.1 to 4
Details: plain residues with an end cap or a label only (N-terminal biotin on a linker: ado-ado)

pKd | Binder
below the threshold | SQPLLVHDDV [KIT, P10721]

Target: DLG1_1, Q12959
Assay: holdup assay
Design: key: below the threshold = too weak to quantify, mostly under pKd 3.1 to 4
Details: plain residues with an end cap or a label only (N-terminal biotin on a linker: ado-ado)

pKd | Binder
below the threshold | SQPLLVHDDV [KIT, P10721]

Target: T5, TIAM2, Q8IVF5
Assay: holdup assay
Design: key: below the threshold = too weak to quantify, mostly under pKd 3.1 to 4
Details: plain residues with an end cap or a label only (N-terminal biotin on a linker: ado-ado)

pKd | Binder
below the threshold | SQPLLVHDDV [KIT, P10721]

Target: T6, APBA1_1, Q02410
Assay: holdup assay
Design: key: below the threshold = too weak to quantify, mostly under pKd 3.1 to 4
Details: plain residues with an end cap or a label only (N-terminal biotin on a linker: ado-ado)

pKd | Binder
below the threshold | SQPLLVHDDV [KIT, P10721]

Target: T7, RHPN1, Q8TCX5
Assay: holdup assay
Design: key: below the threshold = too weak to quantify, mostly under pKd 3.1 to 4
Details: plain residues with an end cap or a label only (N-terminal biotin on a linker: ado-ado)

pKd | Binder
below the threshold | SQPLLVHDDV [KIT, P10721]

Target: T8, GRIP1_2, Q9Y3R0
Assay: holdup assay
Design: key: below the threshold = too weak to quantify, mostly under pKd 3.1 to 4
Details: plain residues with an end cap or a label only (N-terminal biotin on a linker: ado-ado)

pKd | Binder
below the threshold | SQPLLVHDDV [KIT, P10721]

Target: T9, PTPN13_1, Q12923
Assay: holdup assay
Design: key: below the threshold = too weak to quantify, mostly under pKd 3.1 to 4
Details: plain residues with an end cap or a label only (N-terminal biotin on a linker: ado-ado)

pKd | Binder
below the threshold | SQPLLVHDDV [KIT, P10721]

Target: FRMPD2_1, Q68DX3
Sequence (Q68DX3 770-861): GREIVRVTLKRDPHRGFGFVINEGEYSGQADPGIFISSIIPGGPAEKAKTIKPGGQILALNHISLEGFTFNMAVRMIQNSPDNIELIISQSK
Assay: holdup assay
Design: key: below the threshold = too weak to quantify, mostly under pKd 3.1 to 4
Details: plain residues with an end cap or a label only (N-terminal biotin on a linker: ado-ado)

pKd | Binder
below the threshold | SQPLLVHDDV [KIT, P10721]

Target: NHERF4_1, Q86UT5-2
Sequence (Q86UT5 other isoform, or with tags, fused parts or gaps): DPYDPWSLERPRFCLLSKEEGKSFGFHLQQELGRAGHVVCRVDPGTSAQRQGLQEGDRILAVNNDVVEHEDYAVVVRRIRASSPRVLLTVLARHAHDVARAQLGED
Assay: holdup assay
Design: key: below the threshold = too weak to quantify, mostly under pKd 3.1 to 4
Details: plain residues with an end cap or a label only (N-terminal biotin on a linker: ado-ado)

pKd | Binder
below the threshold | SQPLLVHDDV [KIT, P10721]

Target: DLG4_3, P78352
Sequence (P78352 306-403): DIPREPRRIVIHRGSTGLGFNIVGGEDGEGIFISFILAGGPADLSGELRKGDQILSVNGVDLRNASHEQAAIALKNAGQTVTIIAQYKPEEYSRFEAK
Assay: holdup assay
Design: key: below the threshold = too weak to quantify, mostly under pKd 3.1 to 4
Details: plain residues with an end cap or a label only (N-terminal biotin on a linker: ado-ado)

pKd | Binder
below the threshold | SQPLLVHDDV [KIT, P10721]

Target: LNX1_2, Q8TBB1
Sequence (Q8TBB1 371-470): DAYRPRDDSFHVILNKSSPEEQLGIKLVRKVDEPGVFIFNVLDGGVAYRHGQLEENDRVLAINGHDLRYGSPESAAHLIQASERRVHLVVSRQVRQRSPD
Assay: holdup assay
Design: key: below the threshold = too weak to quantify, mostly under pKd 3.1 to 4
Details: plain residues with an end cap or a label only (N-terminal biotin on a linker: ado-ado)

pKd | Binder
below the threshold | SQPLLVHDDV [KIT, P10721]

Target: GRIP2_3, Q9C0E4
Sequence (Q9C0E4 238-339): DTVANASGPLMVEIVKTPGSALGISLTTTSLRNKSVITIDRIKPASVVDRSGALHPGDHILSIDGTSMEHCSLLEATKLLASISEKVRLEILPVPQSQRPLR
Assay: holdup assay
Design: key: below the threshold = too weak to quantify, mostly under pKd 3.1 to 4
Details: plain residues with an end cap or a label only (N-terminal biotin on a linker: ado-ado)

pKd | Binder
below the threshold | SQPLLVHDDV [KIT, P10721]

Target: T10, LNX2_3, Q8N448
Assay: holdup assay
Design: key: below the threshold = too weak to quantify, mostly under pKd 3.1 to 4
Details: plain residues with an end cap or a label only (N-terminal biotin on a linker: ado-ado)

pKd | Binder
below the threshold | SQPLLVHDDV [KIT, P10721]

Target: GRIP2_7, Q9C0E4
Sequence (Q9C0E4 934-1023): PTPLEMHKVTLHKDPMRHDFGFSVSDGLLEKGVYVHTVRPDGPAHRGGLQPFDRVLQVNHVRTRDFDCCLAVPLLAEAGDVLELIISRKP
Assay: holdup assay
Design: key: below the threshold = too weak to quantify, mostly under pKd 3.1 to 4
Details: plain residues with an end cap or a label only (N-terminal biotin on a linker: ado-ado)

pKd | Binder
below the threshold | SQPLLVHDDV [KIT, P10721]
